In assay [1] the target is T1, polypeptide consisting of the amino acid sequence of SEQ ID NO: 66 (human).
T1 peptide: QQPQAASPSVPE
Description: trypsin or chymotrypsin digestion of antibody-CAPRIN-1 complex, protein G Sepharose, MS/MS of recovered peptides. The method, then: The cancer cell surface-reactive mouse-chicken chimeric anti-human CAPRIN-1 monoclonal antibody #12 obtained in the paragraph (4) was used to identify a CAPRIN-1 epitope region recognized thereby. 100 μg of recombinant CAPRIN-1 proteins was dissolved in a protein inhibitor-free dissolving buffer and reacted with the mouse-chicken chimeric anti-human CAPRIN-1 monoclonal antibody #12. To this solution, a digestive enzyme trypsin or chymotrypsin was added, followed by digestion reaction at a suitable temperature. After the reaction, a protein G Sepharose carrier was added thereto, then reacted, and precipitated by centrifugation operation. After removal of the supernatant, the carrier was washed with a dissolving buffer and PBS and dissolved in 0.1% formic acid, and the supernatant was recovered. The recovered supernatant sample was applied to a reverse-phase column (HLB Extraction Cartridge (Waters-OASIS)) to obtain an antibody-free sample solution. The obtained sample was subjected to reverse-phase liquid chromatography (Chromatography Nanosytem (KYA Technologies Corp.)) to recover a solution containing only peptides. The solution was introduced to a tandem-type mass spectrometer Quadrupole-TOF Mass Spectrometer (Waters-MicroMass) and analyzed by MS/MS to detect the peptides contained in the sample. […]

For assay [2], the target named is human CAPRIN-1 expressed on the surface of human cancer cells and in human cancer tissues (human) (UniProt Q14444). The assay can be described thus: flow cytometry, 2 µg antibody on 8 human breast cancer cell lines (ZR75-1, MCF7, T47D, SK-BR-3, MDA-MB-157, BT-20, MDA-MB-231V, MRK-nu-1); control mouse IgG1. In general terms: Flow cytometry measures light scatter and fluorescence of single cells or particles in a stream.

For assay [3] the target is unchanged. Description: flow cytometry on human cancer cell lines Caki-1, Caki-2, A498, T24, SKOV3, QG56, PC3, Hela, HT1080, T98G, U87MG, MNK28, Lovo, Capan-2, MIAPaCa-2, Panc-1, BxPC-3; control mouse IgG1.

B1: mouse-chicken chimeric anti-human CAPRIN-1 monoclonal antibody #12 (antibody, mouse IgG1, V domains shown)
VH: AVTLDESGGGLQMSRGGLSLVCKASGFDFSSYQMNWIRQAPGKGLEFVAAINKFGNSTGHGAAVKGRVTISRDNGQSTVRLQLNNLRAEDTAIYFCTKHAYGYCGSGTWCAAGEIDAWGHGTEVIVSS
VL: QAASTQPSSVSANPGETVEITCSGGGSYSYGWFQQKSPGSAPVTVIYYNNKRPSDIPSRFSGSKSGSTGTLTITGVQADDEAVYYCGSGDSTDTAVFGAGTTLTVLG
notes: Variable regions of chicken antibody #11 with the constant regions of mouse IgG1 (H chain and L chain constant regions); produced in CHO-K1; also called mouse-chicken anti-human CAPRIN-1 monoclonal antibody (#12)
With B1, the binding result in assay [1] is “binds”. Moreover, the rate of increase in mean fluorescence intensity (MFI) over control in assay [2] and in assay [3] was over 35% each time.

The record behind these values is US20150185222A1 (TORAY INDUSTRIES, published 2015).
